Results as given in US20180044434A1 (PUBLIC UNIVERSITY CORPORATION YOKOHAMA CITY UNIVERSITY, published 2018).

Each binder was assayed against T1, full-length recombinant human PAD4 (human, UniProt Q9UM07 1-663) (assay: ELISA, immobilized human PAD4).
T1 construct: Full-length recombinant; also called peptidylarginine deiminase 4
T1 sequence (Q9UM07 whole entry): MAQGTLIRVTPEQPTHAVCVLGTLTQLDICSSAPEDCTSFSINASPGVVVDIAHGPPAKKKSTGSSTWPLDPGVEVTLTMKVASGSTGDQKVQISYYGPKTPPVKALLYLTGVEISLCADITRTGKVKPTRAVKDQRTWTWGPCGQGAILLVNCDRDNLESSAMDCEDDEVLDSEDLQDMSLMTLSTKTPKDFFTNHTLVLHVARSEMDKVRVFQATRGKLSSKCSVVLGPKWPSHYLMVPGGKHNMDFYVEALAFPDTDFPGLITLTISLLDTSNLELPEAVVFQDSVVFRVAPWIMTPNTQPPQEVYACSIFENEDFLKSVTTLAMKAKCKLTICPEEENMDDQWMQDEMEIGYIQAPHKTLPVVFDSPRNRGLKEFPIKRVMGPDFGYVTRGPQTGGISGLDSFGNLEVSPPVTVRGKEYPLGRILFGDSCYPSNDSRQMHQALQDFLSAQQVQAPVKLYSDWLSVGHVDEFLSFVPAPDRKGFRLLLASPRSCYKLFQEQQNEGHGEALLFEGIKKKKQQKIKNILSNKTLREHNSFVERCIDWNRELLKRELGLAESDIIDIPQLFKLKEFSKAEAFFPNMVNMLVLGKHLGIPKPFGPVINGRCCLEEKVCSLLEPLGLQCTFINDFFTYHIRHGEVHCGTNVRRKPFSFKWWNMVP

Binder	O.D. 490/630 at 0.0078125 µg/mL	O.D. 490/630 at 0.015625 µg/mL	O.D. 490/630 at 0.03125 µg/mL	O.D. 490/630 at 0.0625 µg/mL	O.D. 490/630 at 0.125 µg/mL	O.D. 490/630 at 0.25 µg/mL	O.D. 490/630 at 0.5 µg/mL	O.D. 490/630 at 1 µg/mL
humanized anti-PAD4 antibody derived from H7, VH H4.00 / VL L4.15 (antibody, IgG1, V domains shown, IgG1 kappa; also called H7 H4.00/L4.15) VH: not shown VL: SYELTQPPSVSVSPGQTARITCSGGSGRYYYGWYQQKPGQAPVTVIYSSTHRPSGIPERFSGSNSGNTTTLTISGVQAEDEADYYCGTADSSSYVFGGGTKLTVLG	1.31	1.71	1.89	1.92	1.87	1.89	1.87	1.86
humanized anti-PAD4 antibody derived from G8, VH H4.00 / VL L4.06 (antibody, human IgG1, kappa, V domains shown, IgG1 kappa; also called G8 H4.00/L4.06) VH: not shown VL: SYELTQPPSVSVSPGQTARITCSGGNRNYYYGWYQQKPGQAPVTVIYANDKRPSGIPERFSGSYSGNTTTLTISGVQAEDEADYYCGTADTGKYVFGGGTKLTVLG	1.22	1.64	1.83	1.95	1.85	1.81	1.83	1.8
humanized anti-PAD4 antibody derived from H7, VH H4.15 / VL L4.00 (antibody, IgG1, V domains shown, IgG1 kappa; also called H7 H4.15/L4.00) VH: EVQLLESGGGLVQPGGSLRLSCAASGFTFSTYAMGWVRQAPGKGLEFVSAIRNDGSWTGYGAAVKGRFTISRDNSKNTVYLQMNSLRAEDTAVYYCAKYTGSSGGSIGAWGQGTLVTVSS VL: SYELTQPPSVSVSPGQTARITCSGGSGRYYYGWYQQKPGQAPVLVIYSSTHRPSGIPERFSGSSSGTTVTLTISGVQAEDEADYYCGTADSSSYVFGGGTKLTVLG	0.429	0.764	1.23	1.71	1.84	1.9	1.88	1.86
humanized anti-PAD4 antibody derived from G8, VH H4.00 / VL L4.17 (antibody, human IgG1, kappa, V domains shown, IgG1 kappa; also called G8 H4.00/L4.17) VH: not shown VL: SYELTQPPSVSVSPGQTARITCSGGNRNYYYGWYQQKPGQAPVTVIYANDKRPSGIPERFSGSTSGNTTTLTISGVQAEDEADYYCGTADTGKYVFGGGTKLTVLG	1.31	1.62	1.84	1.89	1.82	1.81	1.8	1.8
humanized anti-PAD4 antibody derived from H7, VH H4.15 / VL L4.06 (antibody, IgG1, V domains shown, IgG1 kappa; also called H7 H4.15/L4.06) VH: EVQLLESGGGLVQPGGSLRLSCAASGFTFSTYAMGWVRQAPGKGLEFVSAIRNDGSWTGYGAAVKGRFTISRDNSKNTVYLQMNSLRAEDTAVYYCAKYTGSSGGSIGAWGQGTLVTVSS VL: SYELTQPPSVSVSPGQTARITCSGGSGRYYYGWYQQKPGQAPVTVIYSSTHRPSGIPERFSGSYSGNTTTLTISGVQAEDEADYYCGTADSSSYVFGGGTKLTVLG	1.22	1.68	1.82	1.83	1.84	1.82	1.82	1.84
humanized anti-PAD4 antibody derived from H7, VH H4.00 / VL L4.06 (antibody, IgG1, V domains shown, IgG1 kappa; also called H7 H4.00/L4.06) VH: not shown VL: SYELTQPPSVSVSPGQTARITCSGGSGRYYYGWYQQKPGQAPVTVIYSSTHRPSGIPERFSGSYSGNTTTLTISGVQAEDEADYYCGTADSSSYVFGGGTKLTVLG	1.26	1.75	1.9	2	1.87	1.89	1.86	1.86
humanized anti-PAD4 antibody derived from H7, VH H4.00 / VL L4.00 (antibody, IgG1, V domains shown, IgG1 kappa; also called H7 H4.00/L4.00) VH: not shown VL: SYELTQPPSVSVSPGQTARITCSGGSGRYYYGWYQQKPGQAPVLVIYSSTHRPSGIPERFSGSSSGTTVTLTISGVQAEDEADYYCGTADSSSYVFGGGTKLTVLG	0.441	0.752	1.21	1.72	1.88	1.89	1.91	1.92
humanized anti-PAD4 antibody derived from H7, VH H4.00 / VL L4.17 (antibody, IgG1, V domains shown, IgG1 kappa; also called H7 H4.00/L4.17) VH: not shown VL: SYELTQPPSVSVSPGQTARITCSGGSGRYYYGWYQQKPGQAPVTVIYSSTHRPSGIPERFSGSTSGNTTTLTISGVQAEDEADYYCGTADSSSYVFGGGTKLTVLG	1.3	1.71	1.85	1.91	1.87	1.86	1.85	1.86

Next, values leading:

O.D. 490/630 at 0.0078125 µg/mL	O.D. 490/630 at 0.015625 µg/mL	O.D. 490/630 at 0.03125 µg/mL	O.D. 490/630 at 0.0625 µg/mL	O.D. 490/630 at 0.125 µg/mL	O.D. 490/630 at 0.25 µg/mL	O.D. 490/630 at 0.5 µg/mL	O.D. 490/630 at 1 µg/mL	Binder
1.22	1.64	1.9	1.94	1.82	1.86	1.81	1.77	humanized anti-PAD4 antibody derived from H7, VH H4.32 / VL L4.06 (antibody, IgG1, V domains shown, IgG1 kappa; also called H7 H4.32/L4.06) VH: EVQLLESGGGLVQPGGSLRLSCAASGFTFSTYAMGWVRQAPGKGLEFVAAIRNDGSWTGYGAAVKGRVTISRDNSKNTVYLQMNSLRAEDTAVYYCAKYTGSSGGSIGAWGQGTLVTVSS VL: SYELTQPPSVSVSPGQTARITCSGGSGRYYYGWYQQKPGQAPVTVIYSSTHRPSGIPERFSGSYSGNTTTLTISGVQAEDEADYYCGTADSSSYVFGGGTKLTVLG
0.389	0.713	1.17	1.65	1.77	1.85	1.81	1.82	humanized anti-PAD4 antibody derived from H7, VH H4.32 / VL L4.00 (antibody, IgG1, V domains shown, IgG1 kappa; also called H7 H4.32/L4.00) VH: EVQLLESGGGLVQPGGSLRLSCAASGFTFSTYAMGWVRQAPGKGLEFVAAIRNDGSWTGYGAAVKGRVTISRDNSKNTVYLQMNSLRAEDTAVYYCAKYTGSSGGSIGAWGQGTLVTVSS VL: SYELTQPPSVSVSPGQTARITCSGGSGRYYYGWYQQKPGQAPVLVIYSSTHRPSGIPERFSGSSSGTTVTLTISGVQAEDEADYYCGTADSSSYVFGGGTKLTVLG
1.31	1.63	1.81	1.9	1.81	1.81	1.82	1.77	humanized anti-PAD4 antibody derived from H7, VH H4.15 / VL L4.17 (antibody, IgG1, V domains shown, IgG1 kappa; also called H7 H4.15/L4.17) VH: EVQLLESGGGLVQPGGSLRLSCAASGFTFSTYAMGWVRQAPGKGLEFVSAIRNDGSWTGYGAAVKGRFTISRDNSKNTVYLQMNSLRAEDTAVYYCAKYTGSSGGSIGAWGQGTLVTVSS VL: SYELTQPPSVSVSPGQTARITCSGGSGRYYYGWYQQKPGQAPVTVIYSSTHRPSGIPERFSGSTSGNTTTLTISGVQAEDEADYYCGTADSSSYVFGGGTKLTVLG
1.25	1.65	1.82	1.87	1.83	1.84	1.83	1.82	humanized anti-PAD4 antibody derived from H7, VH H4.15 / VL L4.15 (antibody, IgG1, V domains shown, IgG1 kappa; also called H7 H4.15/L4.15) VH: EVQLLESGGGLVQPGGSLRLSCAASGFTFSTYAMGWVRQAPGKGLEFVSAIRNDGSWTGYGAAVKGRFTISRDNSKNTVYLQMNSLRAEDTAVYYCAKYTGSSGGSIGAWGQGTLVTVSS VL: SYELTQPPSVSVSPGQTARITCSGGSGRYYYGWYQQKPGQAPVTVIYSSTHRPSGIPERFSGSNSGNTTTLTISGVQAEDEADYYCGTADSSSYVFGGGTKLTVLG
